This note sets out measurements from article PMC6072203.

Test [1] has as its target JFH1 NS5A 112A/148A (mutation group b). The test is described as follows: checkmate mammalian two-hybrid assay. To be noted: Huh-7 cells; GAL4/BD-fused and VP16/AD-fused NS5A both carry the mutations; parent: est. 100; read off a plot.
The target in test [2] is H77 NS5A 36A/37A/38A (mutation group a). The test is described as follows: checkmate mammalian two-hybrid assay. The following applies: Huh-7 cells; GAL4/BD-fused and VP16/AD-fused NS5A both carry the mutations; parent: est. 100; read off a plot.
The target in the next test is H77 NS5A 38A. The test is described as follows: mammalian two-hybrid assay. To be noted: Huh-7 cells; GAL4/BD-fused and VP16/AD-fused NS5A both carry the mutation; parent: est. 100; read off a plot.
The target in test [3] is YFP-fused JFH1 NS5A 148A of HJ3-5/NS5A^YFP (hepatitis C virus genotype 2a (JFH1 strain)). The test is described as follows: co-IP; GFP immunoprecipitation (anti-GFP magnetic beads, 1 h, 4 C) of NS5A^YFP from lysates (0.5% Triton X-100, 10 mM Tris-HCl pH 7.5, 150 mM NaCl) of cells electroporated with HJ3-5/NS5A^YFP RNA; core detected by western blot; ratio of co-IP core per IP NS5A^YFP. On the technique in general: Immunoblotting shows a protein as a band on a membrane.

Test [4] deals with YFP-fused JFH1 NS5A 37A of HJ3-5/NS5A^YFP (hepatitis C virus genotype 2a (JFH1 strain)). Described as above.
Test [5] concerns the target YFP-fused JFH1 NS5A 38A of HJ3-5/NS5A^YFP (hepatitis C virus genotype 2a (JFH1 strain)). Described as above.
Test [6] addresses H77 NS5A 36A/37A/38A/112A/148A (both mutation groups). The test is described as follows: checkmate mammalian two-hybrid assay. To be noted: Huh-7 cells; GAL4/BD-fused and VP16/AD-fused NS5A both carry the mutations; parent: est. 100; read off a plot.
The next test concerns the target JFH1 NS5A 37A. The test is described as follows: checkmate mammalian two-hybrid assay. The following applies: Huh-7 cells; GAL4/BD-fused and VP16/AD-fused NS5A both carry the mutation; parent: est. 100; read off a plot.
A further test has as its target JFH1 NS5A 38A. The test is described as follows: checkmate mammalian two-hybrid assay. To be noted: Huh-7 cells; GAL4/BD-fused and VP16/AD-fused NS5A both carry the mutation; parent: est. 100; read off a plot.
Test [7] has as its target H77 NS5A 112A/148A (mutation group b). The test is described as follows: checkmate mammalian two-hybrid assay. The following applies: Huh-7 cells; GAL4/BD-fused and VP16/AD-fused NS5A both carry the mutations; parent: est. 100; read off a plot.
For another test, the target named is JFH1 NS5A 112A (UniProt Q99IB8). The test is described as follows: checkmate mammalian two-hybrid assay. The following applies: Huh-7 cells; GAL4/BD-fused and VP16/AD-fused NS5A both carry the mutation; parent: est. 100; read off a plot.
The target in a further test is JFH1 NS5A 36A. The test is described as follows: checkmate mammalian two-hybrid assay. The following applies: Huh-7 cells; GAL4/BD-fused and VP16/AD-fused NS5A both carry the mutation; parent: est. 100; read off a plot.
Test [8] concerns the target JFH1 NS5A 36A/37A/38A/112A/148A (both mutation groups combined). The test is described as follows: checkmate mammalian two-hybrid assay. To be noted: Huh-7 cells; GAL4/BD-fused and VP16/AD-fused NS5A both carry the mutations; parent: est. 100; read off a plot.
Test [9] has as its target JFH1 NS5A 36A/37A/38A (mutation group a). The test is described as follows: checkmate mammalian two-hybrid assay. To be noted: Huh-7 cells; GAL4/BD-fused and VP16/AD-fused NS5A both carry the mutations; parent: est. 100; read off a plot.
Test [10] addresses H77 NS5A 38A (hepatitis C virus genotype 1a (H77 strain)). The test is described as follows: two-hybrid; Checkmate mammalian two-hybrid: GAL4/BD fusion (pBIND) and VP16/AD fusion (pACT) with the pGL4.3[luc2P/Gal4UAS/Hygro] reporter co-transfected into FT3-7 (Huh-7) cells; lysed at 48 h; F-Luc/R-Luc ratio; for NS5A both fusions carry the same NS5A.
Another test concerns the target H77 NS5A 148A. The test is described as follows: mammalian two-hybrid assay. To be noted: Huh-7 cells; GAL4/BD-fused and VP16/AD-fused NS5A both carry the mutation; parent: est. 100; read off a plot.
For a further test, the target named is H77 NS5A 37A. The test is described as follows: mammalian two-hybrid assay. To be noted: Huh-7 cells; GAL4/BD-fused and VP16/AD-fused NS5A both carry the mutation; parent: est. 100; read off a plot.
The target in a further test is H77 NS5A 112A (UniProt P27958). The test is described as follows: mammalian two-hybrid assay. The following applies: Huh-7 cells; GAL4/BD-fused and VP16/AD-fused NS5A both carry the mutation; parent: est. 100; read off a plot.
Test [11] deals with JFH1 NS5A 36A (hepatitis C virus genotype 2a (JFH1 strain)). The test is described as follows: two-hybrid; Checkmate mammalian two-hybrid: GAL4/BD fusion (pBIND) and VP16/AD fusion (pACT) with the pGL4.3[luc2P/Gal4UAS/Hygro] reporter co-transfected into FT3-7 (Huh-7) cells; lysed at 48 h; F-Luc/R-Luc ratio; for NS5A both fusions carry the same NS5A.

For the substance “wild-type full-length NS5A of gt2a HCV JFH1 (from UniProt Q99IB8) 112A; 148A”, in [1], the percent of parent amounted to 2.7 % wt. With “wild-type full-length NS5A of gt1a HCV H77 (from UniProt P27958) 36A; 37A; 38A”, the percent of parent in [2] was found to be 17 % wt.

Turning to “wild-type full-length NS5A of gt1a HCV H77 (from UniProt P27958) 38A”, the percent of parent in the test with H77 NS5A 38A was 130 % wt. Consider “HCV core protein (H77 core of the chimera HJ3-5) (natural protein)”, for which the NS5A and core co-IP efficiency against wt (% lower than wt) in test [3], in [4] and in test [5] was 50 each time.

As for “wild-type full-length NS5A of gt1a HCV H77 (from UniProt P27958) 36A; 37A; 38A; 112A; 148A”, in test [6], the percent of parent is 3.3 % wt.

“wild-type full-length NS5A of gt2a HCV JFH1 (from UniProt Q99IB8) 37A”: in the test with JFH1 NS5A 37A, the percent of parent is 78 % wt. Turning to “wild-type full-length NS5A of gt2a HCV JFH1 (from UniProt Q99IB8) 38A”, the percent of parent with JFH1 NS5A 38A worked out at 77 % wt. Turning to “wild-type full-length NS5A of gt1a HCV H77 (from UniProt P27958) 112A; 148A”, the percent of parent in test [7] is 11 % wt. For the substance “wild-type full-length NS5A of gt2a HCV JFH1 (from UniProt Q99IB8) 112A”, in the test with JFH1 NS5A 112A, the percent of parent came out at 110 % wt. “wild-type full-length NS5A of gt2a HCV JFH1 (from UniProt Q99IB8) 36A”: the percent of parent with JFH1 NS5A 36A is 22 % wt. “wild-type full-length NS5A of gt2a HCV JFH1 (from UniProt Q99IB8) 36A; 37A; 38A; 112A; 148A”: the percent of parent in [8] was found to be 2.5 % wt. Turning to “wild-type full-length NS5A of gt2a HCV JFH1 (from UniProt Q99IB8) 36A; 37A; 38A”, the percent of parent in [9] worked out at 11 % wt.

For H77 NS5A 38A (natural protein), the percent above wt NS5A self-interaction (F-Luc/R-Luc) in [10] stood at 30 % above wt.

Consider “wild-type full-length NS5A of gt1a HCV H77 (from UniProt P27958) 148A”, for which the percent of parent with H77 NS5A 148A turned out to be 13 % wt. For “wild-type full-length NS5A of gt1a HCV H77 (from UniProt P27958) 37A”, the percent of parent in the test with H77 NS5A 37A turned out to be 45 % wt. As for “wild-type full-length NS5A of gt1a HCV H77 (from UniProt P27958) 112A”, the percent of parent with H77 NS5A 112A turned out to be 27 % wt. Regarding JFH1 NS5A 36A (natural protein), the percent of wt NS5A self-interaction (F-Luc/R-Luc) in [11] is 20 % of wt.
